B1: ATRX_(1,253–1,326) [not stated] / DAXX helical bundle (DHB) domain, DAXX_(55–144) [not stated] (parent complex)
chain 1: SVPVTVDDDDDDNDPENRIAKKMLLEEIKANLSSDEDGSSDDEPEEGKKRTGKQNEENPGDEEAKNQVNSESDS
chain 2: GKKCYKLENEKLFEEFLELCKMQTADHPEVVPFLYNRQQRAHSLFLASAEFCNILSRVLSRARSRPAKLYVYINELCTVLKAHSAKKKLN
B2: DAXX-binding motif of ATRX, ATRX_(1,260–1,289) [not stated] / DAXX helical bundle (DHB) domain, DAXX_(55–144) [not stated] (parent complex)
chain 1: DDDDDNDPENRIAKKMLLEEIKANLSSDED
chain 2: B1 chain 2

Variants of: B1
Experiment: ITC

Row | Variant | Kd [µM]
1 | chain 1 I28A | 0.4
2 | chain 1 I28Q | 7.35
3 | chain 1 L24A | 8.33
4 | chain 1 L24A, chain 1 I28A | 12
5 | chain 1 I28R | 34.8
6 | chain 1 L24R | 73.5
7 | chain 1 L24Q | 43.3
8 | chain 1 A20R | 1.04
9 | chain 1 L25R | 0.97

Variants of: B2
Experiment: ITC

Row | Variant | Kd [µM]
10 | chain 1 D7A, chain 1 E9A | 1.75
11 | chain 1 D1A, chain 1 D2A, chain 1 D3A, chain 1 D4A, chain 1 D5A | 0.85
